Results taken from patent US20230265179A1 (TWIST BIOSCIENCE, published 2023).
Where a chain is given by its changes, count along the chain named.

B1: IL1RL1-48 (Fc fusion, not shown: a dimerising Fc or GST)
VHH: EVQLVESGGGLVQPGGSLRLSCAASGTTFSSDVMGWFRQAPGKERELVAVIIDSRTTKYADSVKGRFTISADNSKNTAYLQMNSLKPEDTAVYYCAAVGGATTVTASEWDWGQGTLVTVSS
notes: VHH-Fc on IgG2 Fc
B2: IL1RL1-77 (Fc fusion, not shown: a dimerising Fc or GST)
VHH: B1 VHH with T27R, D32Y, L47F
notes: VHH-Fc on IgG2 Fc
B3: IL1RL1-42 (Fc fusion, not shown: a dimerising Fc or GST)
VHH: EVQLVESGGGLVQPGGSLRLSCAASGFILDYYAMGWFRQAPGKEREWVSSIGIAGTPTFYADSVKGRFTISADNSKNTAYLQMNSLKPEDTAVYYCAGRLSNGLDWGQGTLVTVSS
notes: VHH-Fc on IgG2 Fc
B4: IL1RL1-37 (Fc fusion, not shown: a dimerising Fc or GST)
VHH: EVQLVESGGGLVQPGGSLRLSCAASGGTFGSYAMGWFRQAPGKEREFVAAINWSGARTYYADSVKGRFTISADNSKNTAYLQMNSLKPEDTAVYYCAVSQPLNYYTYYDARRYDWGQGTLVTVSS
notes: VHH-Fc on IgG2 Fc
B5: IL1RL1-43 (Fc fusion, not shown: a dimerising Fc or GST)
VHH: EVQLVESGGGLVQPGGSLRLSCAASGRTYAMGWFRQAPGKEREWVASISTSGSTITPYADSVKGRFTISADNSKNTAYLQMNSLKPEDTAVYYCAANVASGLKILQWGQGTLVTVSS
notes: VHH-Fc on IgG2 Fc
B6: IL1RL1-41 (Fc fusion, not shown: a dimerising Fc or GST)
VHH: EVQLVESGGGLVQPGGSLRLSCAASGGTLSSYIMGWFRQAPGKEREGVAAIDSDGSTSYADSVKGRFTISADNSKNTAYLQMNSLKPEDTAVYYCAARPVRVDDISLPVGFDWGQGTLVTVSS
notes: VHH-Fc on IgG2 Fc
B7: IL1RL1-51 (Fc fusion, not shown: a dimerising Fc or GST)
VHH: EVQLVESGGGLVQPGGSLRLSCAASGVTLDLYAMGWFRQAPGKEREWVSSIGIAGTPTFYADSVKGRFTISADNSKNTAYLQMNSLKPEDTAVYYCAANYGGSVLYNWGQGTLVTVSS
notes: VHH-Fc on IgG2 Fc
B8: IL1RL1-380 (antibody, V domains shown)
VH: EVQLLESGGGLVQPGGPLRLSCAASGFSFSKFAMSWVRQAPGKGLEWVSGISGSGGNTYYADSVKGRFTISRDNSKNTLYLQMNSLRAEDTAVYYCVKGSRGSYRSSTLGPFKHWGQGTLVTVSS
VL: DIQMTQSPSSLSASVGDRVTITCRTSQSISTYLNWYQQKPGKAPKLLIYAASRLQNGVPSRFSGSGSGTDFTLTISSLQPEDFATYYCQQSYSVPGTFGGGTKVEIK
B9: IL1RL1-388 (antibody, V domains shown)
VH: EVQLLESGGGLVQPGGSLRLSCAASGFTFSRFAMSWVRQAPGKGLEWVSGISGSSGNTYYADSVKGRFTISRDNSKNTLYLQMNSLRAEDTAVYYCAREKRLPIRRRSGEPLGNYFDYWGQGTLVTVSS
VL: B8 VL with S30R, T31K, A51S, N56S, S91N, S93R, V94T, G96F
B10: IL1RL1-385 (antibody, V domains shown)
VH: EVQLLESGGGLVQPGGSLRLSCAASGFTFNTFAMSWVRQAPGKGLELVSAISGSGGNTYYVDSVKGRFTISRDNSKNTLYLQMNSLRAEDTAVYYCARLGSGSSSSIDYWGQGTLVTVSS
VL: B8 VL with T25A, S28Y, Y32F, N56D, S93G, V94S, P95S, G96W
B11: IL1RL1-381 (antibody, V domains shown)
VH: EVQLLESGGGLVQPGGSLRLSCAASGFTSSNYAMTWVRQAPGKGLEWVSSIIGSGGGTYYADSVKGRFTISRDNSKNTLYLQMNSLRAEDTAVYYCARGIPRRKKGAGLFDYWGQGTLVTVSS
VL: B8 VL with T25A, Q27H, T31S, Y32H, A50G, N56R, S91N, S93N, V94T, G96F
B12: IL1RL1-387 (antibody, V domains shown)
VH: EVQLLESGGGLVQPGGSLRLSCAASGFTFNRYAMNWVRQAPGKGLEWVSTISASGGRTYYADSVKGRFTISRDNSKNTLYLQMNSLRAEDTAVYYCARGSLRLDTWGQGTLVTVSS
VL: DIQMTQSPSSLSASVGDRVTITCRASQNIASYLNWYQQKPGKAPKLLIYGASRLQSGVPSRFSGSGSGTDFTLTISSLQPEDFATYYCQQSSTPRTFGGGTKVEIK

The binders below were run against T1, IL1RL1 (UniProt Q01638 19-328, limits assumed) (assay: SPR (Carterra LSA), antibody amine-coupled).
T1 construct: SPR analyte
T1 sequence (looked up): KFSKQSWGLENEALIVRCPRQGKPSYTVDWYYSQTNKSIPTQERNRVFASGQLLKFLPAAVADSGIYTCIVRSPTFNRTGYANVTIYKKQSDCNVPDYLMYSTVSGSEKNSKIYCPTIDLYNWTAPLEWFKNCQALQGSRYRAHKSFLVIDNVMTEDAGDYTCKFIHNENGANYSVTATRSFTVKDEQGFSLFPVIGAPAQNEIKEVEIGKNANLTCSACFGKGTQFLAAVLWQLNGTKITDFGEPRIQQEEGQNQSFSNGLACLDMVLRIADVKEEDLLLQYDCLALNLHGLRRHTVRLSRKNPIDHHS
Procedure: SPR experiments were performed on a Carterra LSA SPR biosensor equipped with a HC30M chip at 25° C. in HBS-TE. Antibodies were diluted to 10 μg/mL and amine-coupled to the sensor chip by EDC/NHS activation, followed by ethanolamine HCl quenching. Increasing concentrations of analyte were flowed over the sensor chip in HBS-TE with 0.5 mg/mL BSA with 5-minute association and 15-minute dissociation. Following each injection cycle the surface was regenerated with 2× 30-second injections of IgG elution buffer (Thermo). Data were analyzed in Carterra's Kinetics Tool software with 1:1 binding model.

Binder | binding result
B1 | no binding
B2 | no binding
B3 | no binding
B4 | no binding
B5 | no binding
B6 | no binding
B7 | no binding

The binders below were run against T2, IL1RL1 over-expressed on Expi293 cells (UniProt Q01638 19-556, limits assumed) (assay: flow cytometry, 100 nM antibody, over-expressing Expi293 / parent cells).
T2 construct: whole, on cells; Target of the flow cytometry MFI ratio (over-expressing cells over parent cells); also called cytokine over-expressing Expi293 cells
T2 sequence (looked up): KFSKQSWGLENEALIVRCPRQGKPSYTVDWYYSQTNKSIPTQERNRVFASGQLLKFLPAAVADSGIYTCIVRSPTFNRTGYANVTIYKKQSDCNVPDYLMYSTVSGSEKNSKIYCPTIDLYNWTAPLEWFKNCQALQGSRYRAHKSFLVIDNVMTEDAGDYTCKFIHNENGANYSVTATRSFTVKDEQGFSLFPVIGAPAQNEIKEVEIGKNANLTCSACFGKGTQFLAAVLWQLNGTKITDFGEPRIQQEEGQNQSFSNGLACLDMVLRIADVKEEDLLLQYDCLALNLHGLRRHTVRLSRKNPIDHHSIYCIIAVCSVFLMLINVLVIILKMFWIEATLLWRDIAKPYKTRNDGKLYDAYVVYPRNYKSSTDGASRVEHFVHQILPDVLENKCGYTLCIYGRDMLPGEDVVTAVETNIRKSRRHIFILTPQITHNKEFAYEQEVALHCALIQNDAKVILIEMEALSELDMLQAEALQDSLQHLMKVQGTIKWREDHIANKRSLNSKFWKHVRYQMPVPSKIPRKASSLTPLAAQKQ
Procedure: (§1) All incubations and washes were in buffer containing PBS+1% BSA. MFI Ratio is defined by the mean fluorescence intensity (MFI) of the cytokine over-expressing Expi293 cell over the Expi293 parent cell. […] EC50 was calculated in GraphPad Prism.

Binder | 100 nM FACS (MFI Ratio) [MFI ratio]
B1 | 1.06
B2 | 1.12
B3 | 0.86
B4 | 1.25
B5 | 1.25
B6 | 0.55
B7 | 1.28

The binders below were run against T3, IL1RL1 (UniProt Q01638 19-556, limits assumed) (assay: flow cytometry, 100 nM IgG on IL1RL1 over-expressing Expi293 cells; MFI over that of Expi293 parent cells).
T3 construct: whole, on cells; The flow cytometry used 'cytokine over-expressing Expi293 cells' against Expi293 parent cells
T3 sequence (looked up): T2 sequence (looked up)
Procedure: as §1

Binder | 100 nM FACS (MFI Ratio) [MFI ratio]
B8 | 0.6
B9 | 0.73
B10 | 7.61
B11 | 0.85
B12 | 1.06
